{"source": "patent US20260258110A1", "about": "“VOLTAGE GATED SODIUM CHANNEL-SPECIFIC PEPTIDE APTAMERS AND USES THEREOF” (The Medical College of Wisconsin, Inc., priority 2023, published 2026)", "key": {"[1]": {"test_system": "mechanical hypersensitivity", "conditions": "after i.p. injection; cited from earlier work"}, "hNav1.7": {"target": "T1, hNav1.7 (Homo sapiens, UniProt Q15858)", "T1 construct": "the Nav1.7 antibody detected full-length Nav1.7 only in HEK1.7 cells", "assay": "Whole-cell voltage-clamp of INa1.7 in HEK1.7 cells after plasmid transfection", "type": "cell-based", "conditions": "for INa1.7 in presence of NaviPA1 mutants: 3-4 days after transfection", "experimental": "The stable expression of each construct was verified by transfection into HEK293 cells stably expressing human wild-type Nav1.7 (HEK1.7 cells), followed by immunoblots (IB). Representative tests for GFPlinker (GFP), 1.7iPAs (1, 2, 3, 4, 6) were shown (FIG. 1H, I). Initial screening experiments by whole-cell voltage-clamp of INa1.7 in HEK1.7 cells, transfected with plasmids encoding nine 1.7iPAs (1.7iPA1-9), were performed to characterize the INa1.7. The presence of 9 different 1.7iPAs in HEK1.7 cells on peak INa1.7 density (3 days after transfection) were summarized in FIG. 1F, in which the data points recorded by at least 2 replicates were combined. […] These experiments thus identified 1.7iPA1 and 1.7iPA4 (both derived from ICL1), as well as 1.7iPA6 (from ICL2), as effective iPAs (>50% INa1.7 inhibition). We next focused on the validation of INa1.7 inhibition and channel kinetics by 1.7iPA1, 4, and 6 on HEK1.7 cells in new experiments. […] The 1.7iPA1 peptide is polyampholytic, enriched with 38.6% positively charged arginine or lysine (17/44), 23% of serine (10/44), 14% acidic residues (6/44); and is highly conserved between rodents and humans (FIG. 2F).\nEP recordings were performed, as we described previously with minor modifications at room temperature (22~25° C.) (10, 12), in a blind manner where the electrophysiologist was not aware of the treatment. Patch pipettes 0.9-2.5M2 resistance were formed from borosilicate glass (King Precision Glass Co., Claremont, CA) and fire polished. Recordings were made with an […] amplifier (Molecular Devices, Downingtown, PA). Signals were filtered at 5 kHz and sampled at 20 and 50 kHz (adopted from literature) (13-22) with a Digidata 1440A digitizer and pClamp10 software (Molecular Devices, San Jose, CA). Series resistance (3-5M (2) was monitored before and after the recordings, and data were discarded if the resistance changed by 20%. After achieving the whole-cell recording, capacitance (Cm) and series resistance (Rs) were compensated accordingly.\nSodium channel current (INa) recording in cultured cell lines. Whole-cell voltage-clamp to recording INa was performed in HEK1.7, HEK1.1, HEK1.3, HEK1.6, HEK1.5, HEK1.8, CHO1.8, NG108-15 cells, and F11cells in current-density (I-V) and fast-inactivation voltage protocols. External solution consists of the following (in mM): 110 NaCl, 20 tetraethylammonium-Cl, […]), 0.1 CaCl2, 5 MgCl2, 10 HEPES and 5.56 mM glucose (pH 7.4, 310-315 mosM/L). The internal pipette solution consisted of (in mM): 10 NaCl, 130 CsCl, 5 MgCl2, 5 EGTA, 2.5 Na2+ATP and 10 HEPES (pH 7.2). After formation of a tight seal (maximal leak amplitude <150 pA), membrane resistance and capacitance were determined. The voltage dependence of activation was assessed from holding potential using 50 ms pulses (test-pulse) to a range of test potentials from −100 mV to +50 mV in 5 mV or 10 mV incremental steps with an interval of 5 s. Current density was calculated by normalizing maximal peak currents with cell capacitance. The voltage dependence of steady-state fast inactivation was measured using a two-step protocol. A 500 ms pre-pulse with various potentials ranging from Vhold to +10 mV in 5 or 10 mV incremental steps was used to inactivate the channels. This pre-pulse was immediately followed by a 40 ms test-pulse at 0 mV to determine the remaining fraction of available channels. Inward current measured during the test-pulse to 0 mV was normalized to the cell's maximum test-pulse inward current. To determine the conductance-voltage (I-V) relationships of voltage-dependent activation, the peak current densities during each voltage command step were fitted to a smooth curve with a Boltzmann equation: I=Gmax (V-Erev)/[(1+exp [(V−V50)/k))], which provided the maximum conductance (Gmax). Normalized activation curves were fitted with a Boltzmann equation G/Gmax=1/(1+exp (V50-Vm)/k), where G was calculated as follows: G=I/(Vm−Erev). […]"}, "DRG neurons": {"test_system": "DRG neurons", "assay": "Whole-cell current-clamp of dissociated DRG neurons from TNI rats (excitability)", "type": "cell-based, rat", "conditions": "transduced small/medium-sized DRG neurons, male TNI rats, compared to sham", "excerpt": "Increased excitability of nociceptive PSNs is a fundamental process underlying neuropathic pain (46). We therefore examined whether AAV6-NaviPA1 treatment reverses the enhanced neuronal excitability of nociceptive PSNs following TNI (12, 47), using the whole-cell current-clamp AP recording of DRG dissociated neurons from rats after the treatment protocol shown in FIG. 7B. […] We therefore recorded from randomly chosen small/medium-sized neurons (<35 μm in diameter) (51) in the cultures from dissociated L4 and L5 DRG. Transduced neurons were identified by GFP fluorescence, and excitability was evaluated by measuring rheobase and repetitive action potential (AP) firing during 250 ms current pulses stepping from 100 pA and 280 pA current injection. […]\nWhole-cell current-clamp recording on dissociated DRG neurons (male rats). […] The membrane input resistance was calculated by dividing the ending amplitude of steady-state hyperpolarizing voltage deflection by the injected current (27). […] The baseline potentials were recorded for 20 ms before the stimulus pulses were injected into the neurons. […] AP frequency was determined by quantifying the number of APs elicited in response to depolarizing current injections (250 ms)."}, "human Nav1.8": {"target": "T2, human Nav1.8 (Homo sapiens, UniProt Q9Y5Y9, DEL1030-1030/M1713V)", "T2 construct": "cell line made in house", "T2 sequence (Q9Y5Y9 with tags, fused parts or gaps DEL1030-1030/M1713V)": "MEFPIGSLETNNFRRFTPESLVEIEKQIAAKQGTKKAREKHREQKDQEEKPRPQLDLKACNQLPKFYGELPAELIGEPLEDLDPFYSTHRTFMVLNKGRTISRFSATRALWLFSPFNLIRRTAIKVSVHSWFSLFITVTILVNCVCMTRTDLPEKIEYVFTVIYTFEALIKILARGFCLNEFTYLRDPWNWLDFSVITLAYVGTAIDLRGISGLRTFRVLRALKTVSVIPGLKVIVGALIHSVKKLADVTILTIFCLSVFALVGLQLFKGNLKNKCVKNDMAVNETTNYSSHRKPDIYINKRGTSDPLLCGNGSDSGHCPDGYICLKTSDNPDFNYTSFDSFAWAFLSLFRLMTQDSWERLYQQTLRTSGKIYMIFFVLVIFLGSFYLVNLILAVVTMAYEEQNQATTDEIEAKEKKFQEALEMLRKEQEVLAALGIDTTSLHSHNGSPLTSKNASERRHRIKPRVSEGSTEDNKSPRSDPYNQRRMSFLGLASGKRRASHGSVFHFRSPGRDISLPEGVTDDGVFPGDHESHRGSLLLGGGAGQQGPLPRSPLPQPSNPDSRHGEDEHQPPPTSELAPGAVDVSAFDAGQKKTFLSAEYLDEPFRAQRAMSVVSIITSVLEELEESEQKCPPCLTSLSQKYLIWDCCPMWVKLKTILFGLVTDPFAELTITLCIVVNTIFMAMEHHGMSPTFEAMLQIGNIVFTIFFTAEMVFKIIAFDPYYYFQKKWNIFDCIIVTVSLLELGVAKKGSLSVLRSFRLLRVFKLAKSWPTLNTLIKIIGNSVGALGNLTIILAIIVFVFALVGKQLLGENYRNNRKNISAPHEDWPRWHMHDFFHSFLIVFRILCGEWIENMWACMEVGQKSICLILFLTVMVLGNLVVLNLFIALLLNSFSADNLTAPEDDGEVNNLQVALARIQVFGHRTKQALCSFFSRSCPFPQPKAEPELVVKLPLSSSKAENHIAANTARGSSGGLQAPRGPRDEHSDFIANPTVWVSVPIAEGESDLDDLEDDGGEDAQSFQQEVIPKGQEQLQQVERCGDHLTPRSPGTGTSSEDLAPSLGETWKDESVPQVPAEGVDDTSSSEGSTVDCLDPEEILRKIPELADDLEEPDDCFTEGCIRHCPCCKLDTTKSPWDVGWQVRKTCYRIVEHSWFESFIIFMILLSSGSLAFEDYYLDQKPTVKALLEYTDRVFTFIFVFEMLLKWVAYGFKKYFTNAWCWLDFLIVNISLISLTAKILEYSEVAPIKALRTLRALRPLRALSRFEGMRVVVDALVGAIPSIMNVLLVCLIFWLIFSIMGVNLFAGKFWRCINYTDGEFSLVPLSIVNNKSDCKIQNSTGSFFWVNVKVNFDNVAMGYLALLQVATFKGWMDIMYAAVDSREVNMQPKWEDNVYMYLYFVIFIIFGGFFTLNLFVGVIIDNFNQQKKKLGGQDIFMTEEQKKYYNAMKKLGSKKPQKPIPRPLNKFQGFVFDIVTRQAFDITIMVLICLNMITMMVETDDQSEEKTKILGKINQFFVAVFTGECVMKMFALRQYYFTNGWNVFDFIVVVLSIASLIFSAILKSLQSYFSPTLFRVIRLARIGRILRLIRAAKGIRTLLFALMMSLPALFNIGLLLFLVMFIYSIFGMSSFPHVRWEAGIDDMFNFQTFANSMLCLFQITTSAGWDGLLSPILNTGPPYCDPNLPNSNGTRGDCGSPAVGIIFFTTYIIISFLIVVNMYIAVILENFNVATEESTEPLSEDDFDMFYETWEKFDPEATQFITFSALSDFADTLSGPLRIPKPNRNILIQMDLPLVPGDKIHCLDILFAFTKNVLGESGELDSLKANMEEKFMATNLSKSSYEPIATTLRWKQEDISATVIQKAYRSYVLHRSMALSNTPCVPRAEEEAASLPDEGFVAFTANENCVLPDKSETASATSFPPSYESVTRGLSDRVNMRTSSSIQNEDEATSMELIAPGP", "assay": "Whole-cell voltage-clamp of INa1.8 in HEK1.8 stable cells", "type": "cell-based", "parameters": "sensitivity of INa1.8 to channel blocker: dose or concentration left out as unconfirmed"}, "Nav1.7": {"target": "T3, Nav1.7 (Homo sapiens, UniProt Q15858)", "T3 construct": "the Nav1.7 antibody detected full-length Nav1.7 only in HEK1.7 cells", "T3 sequence (Q15858 whole entry)": "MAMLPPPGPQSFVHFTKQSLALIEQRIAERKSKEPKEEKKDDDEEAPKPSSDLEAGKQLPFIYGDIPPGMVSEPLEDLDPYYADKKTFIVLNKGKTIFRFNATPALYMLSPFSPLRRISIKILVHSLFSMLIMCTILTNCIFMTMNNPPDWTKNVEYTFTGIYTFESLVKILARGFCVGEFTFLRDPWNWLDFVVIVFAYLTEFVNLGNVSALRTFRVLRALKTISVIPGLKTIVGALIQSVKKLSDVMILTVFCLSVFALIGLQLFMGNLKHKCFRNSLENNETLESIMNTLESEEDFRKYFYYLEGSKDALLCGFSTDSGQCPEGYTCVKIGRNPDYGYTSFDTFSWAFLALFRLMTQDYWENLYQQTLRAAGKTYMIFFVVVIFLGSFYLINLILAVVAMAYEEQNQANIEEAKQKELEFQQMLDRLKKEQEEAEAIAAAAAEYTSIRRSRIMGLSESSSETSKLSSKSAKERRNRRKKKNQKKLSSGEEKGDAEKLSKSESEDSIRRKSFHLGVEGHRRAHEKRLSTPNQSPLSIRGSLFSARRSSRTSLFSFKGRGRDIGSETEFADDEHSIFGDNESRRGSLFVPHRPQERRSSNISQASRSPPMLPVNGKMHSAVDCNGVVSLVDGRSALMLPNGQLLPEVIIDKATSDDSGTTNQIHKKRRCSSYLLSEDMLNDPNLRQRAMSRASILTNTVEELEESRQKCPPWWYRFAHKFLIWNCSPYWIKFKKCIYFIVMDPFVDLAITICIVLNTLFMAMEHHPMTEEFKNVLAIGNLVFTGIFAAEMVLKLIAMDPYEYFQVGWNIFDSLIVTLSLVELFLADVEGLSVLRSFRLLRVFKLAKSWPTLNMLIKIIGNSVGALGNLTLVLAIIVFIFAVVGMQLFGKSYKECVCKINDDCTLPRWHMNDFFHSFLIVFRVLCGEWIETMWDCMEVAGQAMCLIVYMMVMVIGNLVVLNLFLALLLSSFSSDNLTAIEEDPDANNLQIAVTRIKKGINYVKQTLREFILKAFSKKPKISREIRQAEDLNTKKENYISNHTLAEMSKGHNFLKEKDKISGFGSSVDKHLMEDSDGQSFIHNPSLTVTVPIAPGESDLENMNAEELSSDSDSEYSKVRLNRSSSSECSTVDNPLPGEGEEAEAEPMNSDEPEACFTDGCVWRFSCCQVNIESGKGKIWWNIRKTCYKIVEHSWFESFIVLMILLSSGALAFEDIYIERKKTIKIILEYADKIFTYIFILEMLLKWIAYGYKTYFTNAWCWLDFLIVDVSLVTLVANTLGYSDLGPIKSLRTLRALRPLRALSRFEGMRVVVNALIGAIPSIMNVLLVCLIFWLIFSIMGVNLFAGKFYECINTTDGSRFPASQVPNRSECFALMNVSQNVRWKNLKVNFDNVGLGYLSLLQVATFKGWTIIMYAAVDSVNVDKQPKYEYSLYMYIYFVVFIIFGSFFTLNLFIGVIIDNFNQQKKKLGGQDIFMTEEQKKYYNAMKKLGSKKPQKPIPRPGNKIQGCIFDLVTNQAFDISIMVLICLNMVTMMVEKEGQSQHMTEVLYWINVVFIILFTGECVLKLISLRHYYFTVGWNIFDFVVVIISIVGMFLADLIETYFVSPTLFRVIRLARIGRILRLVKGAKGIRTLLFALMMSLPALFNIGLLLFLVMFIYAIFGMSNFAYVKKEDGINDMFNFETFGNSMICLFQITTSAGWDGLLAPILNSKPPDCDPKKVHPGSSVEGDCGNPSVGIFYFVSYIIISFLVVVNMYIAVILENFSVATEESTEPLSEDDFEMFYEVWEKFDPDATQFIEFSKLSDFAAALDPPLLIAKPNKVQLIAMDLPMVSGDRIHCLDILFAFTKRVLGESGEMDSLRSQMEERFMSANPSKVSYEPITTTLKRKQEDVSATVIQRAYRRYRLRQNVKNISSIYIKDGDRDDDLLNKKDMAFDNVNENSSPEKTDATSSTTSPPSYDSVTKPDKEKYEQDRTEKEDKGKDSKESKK", "assay": "Immunoblot of membrane Nav1.7 in fractionated HEK1.7 cells (intracellular trafficking)", "type": "cell-based", "conditions": "fractionated HEK1.7 cells after transfection", "experimental": "Since Nav1.7 is an integral membrane protein, we therefore tested whether NaviPA1 expression in the HEK1.7 cells would interrupt Nav1.7 intracellular trafficking. […] Studies have shown that IDRs in the membrane proteins engage in interactions with the membrane (33). To test whether NaviPA1 interference of Nav1.7 might be via […] of Nav1.7, GFP affinity pull-down by ChromoTek GFP-Trap (ChromoTek, Rosemont, IL) was performed after transfection of GFP-NaviPA1 in HEK1.7 cells using GFPlinker (GFP) and GFP-1.7iPA2 (FIG. 1) as the controls. Cell lysates were prepared by a lysis buffer containing 0.5% Nonidet p40, a ‘non-denaturing’ mild lysis detergent, for preventing interaction breaking and maximizing the retention of NaviPA1-protein interactions (34). […] It has been reported that polybasic IDRs in transmembrane proteins preferably bind to negatively charged lipids (36, 37). We reasoned that NaviPA1 might be able to bind phosphoinositides, and this hypothesis was tested by using phosphatidylinositol phosphate (PIP) strips (Echelon PIP Strip, Salt Lake City, UT). […]\nNaviPA1 is a polybasic arginine/lysine and serine-enriched peptide. […] However, the full-length Nav1.7 membrane integration, which is determined by its TM domains but not intracellular sequences, was unaffected in the presence of NaviPA1 (FIG. 6F). […]"}, "BK potassium channels": {"test_system": "BK potassium channels", "assay": "BK IKv recording in NG108-15 cells", "type": "cell-based"}, "[2]": {"conditions": "HEK1.7 cells, initial screening"}}, "note": "Where two headings read alike, the source gives them in different places. No end group written: not given here."}
{"molecule": "NCC1(CC(=O)O)CCCCC1", "note": "[gabapentin, Gabapentin]", "values": [{"measurement": "time of maximal reduction of mechanical hypersensitivity", "setting": "[1]", "result": "30 to 60", "unit": "min"}]}
{"molecule": "Nav1.7iPA3: inert peptide from N-terminus of Nav1.7 (SEQ ID NO: 3), used as control NP (SEEKAKEHKDEKKDDEEEGPKPSSDLEAGKQ)", "values": [{"measurement": "Activation V50", "setting": "hNav1.7; [2]", "result": "25.4 ± 1.2 (22) mV"}, {"measurement": "Inactivation V50", "setting": "hNav1.7; [2]", "result": "61.6 ± 2 (18) mV"}, {"measurement": "Peak INa1.7", "setting": "hNav1.7; HEK1.7 cells, initial screening after plasmid transfection, value ± spread, (n) in cell", "result": "118 ± 1 (22) pA/pF"}, {"measurement": "effect on peak INa1.7 density", "setting": "hNav1.7; compared to sham transfected HEK1.7 cells", "result": "no significant effects"}, {"measurement": "rheobase and frequency of evoked APs in neurons from TNI rats", "setting": "DRG neurons", "result": "no significant effects"}]}
{"molecule": "NaviPA1mt2: GFP-fused NaviPA1 mutant, alanine substitution for nine arginine or lysine within predicted polybasic NLS (SSKSAKEAANAAAAAAQAMSSGEEKGDDEKLSKSGSEESIRKKS; also: GFP fusion)", "values": [{"measurement": "INa1.7 in presence of NaviPA1 mutants", "setting": "hNav1.7; HEK1.7 cells", "result": "comparable to naïve and GFPNP transfected HEK1.7 cells"}, {"measurement": "effect on INa1.8", "setting": "human Nav1.8; HEK1.8 cells", "result": "did not change"}, {"measurement": "membrane Nav1.7 protein / Nav1.7 membrane integration", "setting": "Nav1.7", "result": "not to impede"}]}
{"molecule": "NC1=N[C@H](O)[C@H]2[C@H]3O[C@]4(O)O[C@@H]([C@@H](O)[C@@]2(N1)[C@@H]4O)[C@]3(O)CO", "note": "[TTX, tetrodotoxin, reference compound]", "values": [{"measurement": "Peak INa1.7", "setting": "hNav1.7", "result": "2 ± 1 (10) pA/pF"}, {"measurement": "sensitivity of INa1.8 to channel blocker", "setting": "human Nav1.8", "result": "resistant"}]}
{"molecule": "1.7/1.8iPA: disordered polyacidic 38mer from Nav1.7 intracellular loop 2 with AnkG and Pdzd2-I binding domains; dual Nav1.7/1.8 inhibitory peptide aptamer (PGESDLEIMNTEELSSDSDSDYSKEKRNRSSSSECSTV)", "values": [{"measurement": "effect on INa1.7", "setting": "hNav1.7; preliminary data, 38mer expressed in HEK1.7 cells", "result": "inhibits"}, {"measurement": "Nav1.7 voltage-gated activation", "setting": "hNav1.7; preliminary data, HEK1.7 cells", "result": "possibly desensitized"}, {"measurement": "effect on INa1.8", "setting": "human Nav1.8; preliminary data, expression in HEK1.8 cells", "result": "suppresses"}, {"measurement": "effect on BK IKv", "setting": "BK potassium channels", "result": "No change"}]}
{"molecule": "NaviPA1mt1: GFP-fused NaviPA1 mutant, alanine substitution for ten serine residues (AAKAAKERRNRRKKKKQKMAAGEEKGDDEKLAKAGAEEAIRKKA; also: GFP fusion)", "values": [{"measurement": "INa1.7 in presence of NaviPA1 mutants", "setting": "hNav1.7; HEK1.7 cells", "result": "comparable to naïve and GFPNP transfected HEK1.7 cells"}, {"measurement": "effect on INa1.8", "setting": "human Nav1.8; HEK1.8 cells", "result": "did not change"}, {"measurement": "membrane Nav1.7 protein / Nav1.7 membrane integration", "setting": "Nav1.7", "result": "not to impede"}]}
{"molecule": "COc1cc(NC(=O)c2ccc(-c3ccc(Cl)cc3)o2)cc(OC)c1", "note": "[A803467, reference compound]", "values": [{"measurement": "INa1.8 inhibition", "setting": "human Nav1.8; 100 nM, HEK1.8 cells", "result": 85, "unit": "%"}, {"measurement": "sensitivity of INa1.8 to channel blocker", "setting": "human Nav1.8; HEK1.8 cells", "result": "sensitive"}]}
